B1: TPP-66177 (Fc fusion)
chain: DVQLVESGGGVVQAGGSLSISCAASGGSLSNYVLGWFRQAPGKEREFVAAINWRGDITIGPPNVEGRFTISRDNAKNTGYLQMNSLAPDDTALYYCGAGTPLNPGAYIYDWSYDYWGRGTLVTVSSDKTHTCPSCPAPEAAGGPSVFLFPPKPKDTLMISRTPEVTCVVVDVSQEDPEVQFNWYVDGVEVHNAKTKPREEQFNSTYRVVSVLTVLHQDWLNGKEYKCKVSNKGLPSSIEKTISKAKGQPREPQVYTLPPSQEEMTKNQVSLTCLVKGFYPSDIAVEWESNGQPENNYKTTPPVLDSDGSFFLYSKLTVDKSRWQEGNVFSCSVMHEALHNHYTQKSLSLSLGGGGGSGGGGSGGGGSGGGGSGGGGSGGGGSGGGGSEVQLVESGGGVVQPGGSLRLSCAASGFTFRSFGMSWVRQAPGKGPEWVSSISGSGSDTLYADSVKGRFTISRDNSKNTLYLQMNSLRPEDTALYYCTIGGSLSRSSQGTLVTVSSA
notes: Symmetrical IgG4 FALA Fc fusion without knob-in-hole mutations, two C-terminal ALB23002 via 35GS; also called symmetrical ALB23002 ISVD-Fc polypeptide
B2: TPP-66150 (Fc fusion)
chain 1: DVQLVESGGGVVQAGGSLSISCAASGGSLSNYVLGWFRQAPGKEREFVAAINWRGDITIGPPNVEGRFTISRDNAKNTGYLQMNSLAPDDTALYYCGAGTPLNPGAYIYDWSYDYWGRGTLVTVSSDKTHTCPPCPAPEAAGGPSVFLFPPKPKDTLMISRTPEVTCVVVDVSQEDPEVQFNWYVDGVEVHNAKTKPREEQFNSTYRVVSVLTVLHQDWLNGKEYKCKVSNKGLPSSIEKTISKAKGQPREPQVYTLPPCQEEMTKNQVSLWCLVKGFYPSDIAVEWESNGQPENNYKTTPPVLDSDGSFFLYSKLTVDKSRWQEGNVFSCSVMHEALHNHYTQKSLSLSLG
chain 2: DVQLVESGGGVVQAGGSLSISCAASGGSLSNYVLGWFRQAPGKEREFVAAINWRGDITIGPPNVEGRFTISRDNAKNTGYLQMNSLAPDDTALYYCGAGTPLNPGAYIYDWSYDYWGRGTLVTVSSDKTHTCPPCPAPEAAGGPSVFLFPPKPKDTLMISRTPEVTCVVVDVSQEDPEVQFNWYVDGVEVHNAKTKPREEQFNSTYRVVSVLTVLHQDWLNGKEYKCKVSNKGLPSSIEKTISKAKGQPREPQVCTLPPSQEEMTKNQVSLSCAVKGFYPSDIAVEWESNGQPENNYKTTPPVLDSDGSFFLVSKLTVDKSRWQEGNVFSCSVMHEALHNRFTQKSLSLSLGGGGGSGGGGSGGGGSGGGGSGGGGSGGGGSGGGGSDLGKKLLEAARAGQDDEVRELLKAGADVNAKDYFSHTPLHLAARNGHLKIVEVLLKAGADVNAKDFAGKTPLHLAANEGHLEIVEVLLKAGADVNAQDIFGKTPADIAADAGHEDIAEVLQKAA

Tests used:
[1] = molecular target: T1, Mouse serum albumin (MSA; Albumin Bioscience Cat No. 2601) (mouse, UniProt P07724 25-608); assay: SPR Biacore 8K+, MSA on C1 chip, pH 7.4, bivalent analyte fit (kd1)
[2] = molecular target: T2, Human serum albumin (HSA; Sigma-Aldrich Cat No. A8763) (human, UniProt P02768 25-609); assay: SPR Biacore 8K+, HSA on C1 chip, pH 7.4, bivalent analyte fit (ka1)
[3] = molecular target: T3, Human FcRn (biotinylated human FcRn) (human, UniProt P61769 21-119); assay: SPR Biacore 8K+, biotinylated hFcRn on SA chip (~500-600 RU), pH 6.0, bivalent analyte fit (ka1)
T3 construct: Biotinylated human FcRn captured on a Series S Sensor Chip SA; also called human neonatal Fc receptor; hFcRn

[4] = molecular target: T2, Human serum albumin (HSA; Sigma-Aldrich …); assay: SPR Biacore 8K+, HSA on C1 chip, pH 7.4, bivalent analyte fit (kd1)
[5] = molecular target: T2, Human serum albumin (HSA; Sigma-Aldrich …); assay: SPR Biacore 8K+, HSA on C1 chip, pH 7.4, bivalent analyte fit (KD1)
[6] = molecular target: T3, Human FcRn (biotinylated human FcRn); assay: SPR Biacore 8K+, biotinylated hFcRn on SA chip (~500-600 RU), pH 6.0, bivalent analyte fit;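 further: analytes were Fc proteins binding to biotinylated human FcRn captured on a Series S streptavidin sensor chip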
[7] = molecular target: T3, Human FcRn (biotinylated human FcRn); assay: SPR Biacore 8K+, biotinylated hFcRn on SA chip (~500-600 RU), pH 6.0, bivalent analyte fit (kd1)
[8] = molecular target: T1, Mouse serum albumin (MSA; Albumin …); assay: SPR Biacore 8K+, MSA on C1 chip, pH 7.4, bivalent analyte fit (KD1)
[9] = molecular target: T3, Human FcRn (biotinylated human FcRn); assay: SPR Biacore 8K+, biotinylated hFcRn on SA chip (~500-600 RU), pH 6.0, bivalent analyte fit (KD1)
[10] = molecular target: T1, Mouse serum albumin (MSA; Albumin …); assay: SPR Biacore 8K+, MSA on C1 chip, pH 7.4, bivalent analyte fit (ka1)
[11] = molecular target: T1, Mouse serum albumin (MSA; Albumin …); assay: SPR Biacore 8K+, MSA on C1 chip, pH 7.4, off-rate column
[12] = molecular target: T2, Human serum albumin (HSA; Sigma-Aldrich …); assay: SPR Biacore 8K+, HSA on C1 chip, pH 7.4, off-rate column

| Binder | koff [1] [s⁻¹] | kon [2] [M⁻¹ s⁻¹] | kon [3] [M⁻¹ s⁻¹] | koff [4] [s⁻¹] | Kd [5] [nM] | KD2 [6] [M] | ka2 [6] | kd2 [6] [s⁻¹] | koff [7] [s⁻¹] | Kd [8] [nM] | Kd [9] [nM] | kon [10] [M⁻¹ s⁻¹] | binding result [11] | binding result [12] |
| --- | --- | --- | --- | --- | --- | --- | --- | --- | --- | --- | --- | --- | --- | --- |
| B1 | 0.000404 | 54300 | 51500 | 0.000776 | 14.3 | 3.64 | 4.07e-05 1/RUs | 0.000148 | 0.0872 | 8.8 | 1690 | 45900 |  |  |
| B2 |  |  | 73900 |  |  | 6.37 | 3.02e-05 1/RUs | 0.000192 | 0.0859 |  | 1160 |  | binds | binds |

Reference: US20240368250A1 (Ablynx, published 2024)
